Assay results reported in US7642400B2, “Protein kinase C iota” (Mayo Foundation for Medical Education and Research, priority 2004, dated 2010).

B1: PKCι(1-113): first 113 amino acids of PKCι, encompassing the PB1 domain, expressed in cells from a plasmid (protein)
chain: MPTQRDSSTMSHTVAGGGSGDHSHQVRVKAYYRGDIMITHFEPSISFEGLCNEVRDMCSFDNEQLFTMKWIDEEGDPCTVSSQLELEEAFRLYELNKDSELLIHVFPCVPERP

Key:
[1] = biological target: T1, interaction of PKCι polypeptides with PAR6 polypeptides (Homo sapiens, UniProt P41743); assay: Primary screen: FRET assay of PKCι113-YFP-N1 (PYN) and PAR6125-CFP-C1; settings: FIG. 18; less binding as concentration increased
T1 construct: amino acids 1-113 or a full-length PKCι polypeptide; 6xHis; made in house
T1 sequence (P41743 10-122): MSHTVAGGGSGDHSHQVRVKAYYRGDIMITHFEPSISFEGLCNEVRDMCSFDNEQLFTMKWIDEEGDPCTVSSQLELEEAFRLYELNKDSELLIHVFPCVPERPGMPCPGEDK
Procedure: A primary screen was performed as follows to identify test compound having the potential to inhibit the interaction of PKCι polypeptides with PAR6 polypeptides. Bacterially expressed PKCι113-YFP-N1 (PYN) was isolated from the soluble fraction of bacterial lysates by affinity purification according to the manufacturer's protocol (B-PER 6×His Purification Kit; Pierce). The purified polypeptide was dialyzed against Tris buffer (50 mM Tris, pH 8.0; 135 mM NaCl; 10% glycerol; 0.002% EDTA) containing 2 M urea. PAR6125-CFP-C1 recombinant polypeptide was isolated from the inclusion body pellets of bacterial lysates using the B-PER reagent (Pierce) according to the manufacturer's protocol. […] Yields were measured by fluorescence in a SpectraMax Gemini microplate reader (Molecular Devices).
To perform the assay, PYN was diluted to 4000 relative fluorescent units/50 μl in Tris buffer plus 1 M urea, and PAR6125-CFP-C1 was diluted to 400 relative fluorescent units/50 μl Tris buffer plus 1 M urea. […] Fluorescence was measured in a SpectraMax Gemini plate reader. Cyan fluorescence was measured at excitation 395 nm, emission 475 nm, and cutoff of 455 nm. Yellow fluorescence was measured at excitation 395 nm, emission 529, and cutoff of 515=n. […]

[2] = biological target: T1, interaction of PKCι polypeptides with PAR6 polypeptides; assay: Secondary screen: PYN bound to plate-immobilised biotin-tagged PAR6; format: binding; settings: increasing amounts, e.g. 0, 0.1, 1, 10, 100, and 100 μM
Procedure: Multiple test compounds that were classified as hits in the primary screen as well as additional related compounds were evaluated in a secondary screen designed as follows. Briefly, a 96-well microtiter plate coated with streptavidin (Nunc #436014) was incubated for 2-4 hours at room temperature with 100 μl of a 20-30 μg/ml solution of biotin-tagged PAR6 (whole polypeptide) in phosphate-buffered saline containing Tween-20 (PBST). Plates were washed twice with PBST, then once with incubation buffer (50 mM Tris, pH 8.0; 135 mM NaCl; 10% glycerol; 0.002% EDTA). Incubation buffer (50 μl) was added to each well. The compounds to be tested were added (10 μl) followed by PYN (50 μl) diluted in incubation buffer to an approximate concentration of 4000-5000 relative fluorescent units per 50 μl. Plates were incubated overnight at 4° C. Plates were washed twice with incubation buffer, after which 50 μl incubation buffer was added to retain moisture in the wells. The amount of PYN bound on the plates was determined by measuring yellow fluorescence (532/526) in a Typhoon imager. Fluorescence was quantitated by Softmax Pro software.
A dose-response analysis was performed using the secondary screening assay and increasing amounts (e.g., 0, 0.1, 1, 10, 100, and […]) of gossypol, hexestrol, thimerosal, ebselen, ATG, ATM, ellagic acid, cisplatin, apomorphine, or phenylmercuric acetate.

A549 cells [3] = assay: Soft agar growth assay (anchorage-independent growth) of A549 cells; format: cell-based, human; settings: A549 cells expressing PKCι(1-113) versus A549/LZRS; FIG. 12G
Procedure: (§1) Anchorage-independent growth was assayed by the ability of cells to form colonies in soft agar. The bottom agar consisted of growth medium containing 10% FBS and 0.75% agarose in 60-mm tissue culture dishes. Nine hundred cells were resuspended in growth medium containing 10% FBS and 0.75% agarose, and plated on top of the bottom agar. The cells were incubated at 37° C. in 5% CO2. Cell colonies were visualized and quantified under a dissecting microscope (Olympus) after 4-6 weeks in culture.
as §1, with “Soft Agar Growth Assays: Anchorage-independent growth” for “Anchorage-independent growth”, “and 0.75% agarose and plated” for “and 0.75% agarose, and plated”, “bottom agar. ATG was added at the indicated concentration to both bottom and top agar solutions. The cells” for “bottom agar. The cells”

[4] = test system: Rac1 activity in A549 cells; assay: Rac1 activity assay (affinity isolation of GTP-bound Rac1) in A549 cells; format: cell-based, human; settings: A549 cells treated with PSI or stably expressing PKCι(1-113); FIG. 12E
Procedure: Rac 1 Activity Assays: Rac1 activity in A549 and H1299 cell transfectants was assessed by affinity isolation of GTP-bound Rac1 using binding domains of PAK as described previously (Sander et al., J. Cell Biol., 143(5):1385-98 (1998)). Briefly, cells were lysed in lysis buffer (50 mM Tris-HCl pH 7.5, 150 mM NaCl, 20 mM MgCl2, 5 mM EGTA, 10% glycerol, 1% Triton X-100, 1% NP-40, 25 mM NaF, 1 mM phenylmethylsulfonyl fluoride, 1 mM sodium orthovanadate, 10 μg/ml leupeptin, 10 μg/ml aprotinin) at 4° C. for 5 min. Cellular debris was removed by centrifugation at 20,000×g for 5 min, and supernatants were transferred to new tubes containing 20 μl of GST-p21-binding domain of PAK1 (PAK1-PBD) coupled to agarose beads (Upstate). An aliquot of each supernatant was reserved to determine total Rac1 and actin expression by immunoblot analysis. Following a 30-minute incubation at 4° C., the agarose beads were collected by centrifugation and washed three times in wash buffer (50 mM Tris-HCl pH 7.5, 150 mM NaCl, 20 mM MgCl2, 5 mM EGTA, 10% glycerol, 1% Triton X-100, 1% NP-40, 25 mM NaF, 1 mM phenylmethylsulfonyl fluoride, 1 mM sodium orthovanadate, 10 μg/ml leupeptin, 10 μg/ml aprotinin). Bound polypeptides were solubilized by the addition of 30 μl of SDS sample buffer, resolved by SDS-PAGE, and subjected to immunoblot analysis for Rac1. An equivalent aliquot of the total cell lysate was subjected to immunoblot analysis to determine total Rac1 expression.
Rac 1 Activity Assays: A549 cells were incubated with the indicated concentration of ATG for one hour prior to analysis. Rac1 activity in A549 cells was assessed by affinity isolation of GTP-bound Rac1 using binding domains of PAK as described elsewhere (Sander et al., J. Cell Biol., 143:1385-98 (1998)). Briefly, cells were lysed in lysis buffer (50 mM Tris-HCl pH 7.5, 150 mM NaCl, 20 mM MgCl2, 5 mM EGTA, 10% glycerol, 1% Triton X-100, 1% NP-40, 25 mM NaF, 1 mM phenylmethylsulfonyl fluoride, 1 mM sodium orthovanadate, 10 μg/ml leupeptin, and 10 μg/ml aprotinin) at 4° C. for 5 min. […]

RIE/Ras cells = assay: Soft agar colony formation of RIE/Ras cells; format: cell-based, rat; settings: RIE/Ras/PKCι(1-113) versus RIE/Ras cells; FIG. 9
Excerpt: To assess anchorage-independent growth, RIE cell transfectants were suspended in DMEM supplemented with 10% FBS, 1.5% agarose, and a 1% insulin, transferrin and selenium solution (Sigma-Aldrich), and plated (300 cells/60 mm dish) on a layer of 1.5% agar containing the same medium. Cell colonies were fixed with 20% methanol and stained with Giemsa after 7-14 days in culture and quantified under a dissecting microscope.

A549 cells [5] = assay: Cell invasion through Matrigel-coated chambers, A549 transfectants; format: cell-based, human; settings: A549 cells expressing PKCι(1-113) versus A549/LZRS; FIG. 12F
Procedure: Cell Invasion and Soft Agar Growth Assays: A549 and H1299 transfectants were assayed for cell invasion using Matrigel-coated Transwell cell culture chambers (6,5-mm diameter, 8-μm pore size; BD Biosciences). A549 and H1299 cell transfectants in logarithmic growth phase were harvested with trypsin, the trypsin neutralized with serum-containing medium, and the cells pelleted and resuspended in serum-free growth medium. 2.5×10^4 cells were placed into the upper chamber of the Transwell insert, and growth medium containing 10% FBS was added to the lower chamber. After 22 hours at 37° C. in 5% CO2, non-invasive cells in the upper chambers were removed and invasive cells were fixed in 100% methanol and stained with 0.5% crystal violet (Sigma) in 2% ethanol. Cells which had invaded through the Matrigel-coated filter were counted on a microscope (X40, Olympus) using a calibrated ocular grid.

| Molecule | dose-response in the FRET assay: relative binding of PKCι and PAR6 polypeptides [1] | dose-response analysis using the secondary screening assay [2] | anchorage-independent growth in soft agar (A549 cells [3]) | Rac1 activity [4] | soft agar colony formation (RIE/Ras cells) | A549 cell invasion (A549 cells [5]) |
| --- | --- | --- | --- | --- | --- | --- |
| O=C(O)CC([S-])C(=O)O.[Au+] (stereo not drawn) [ATM, aurothiomaleate] | dose-dependent effect | dose-dependent response was detected | – | – | – | – |
| B1 | – | – | inhibits | inhibits Rac1 activity | significantly less soft agar colony formation | inhibits |
